# Source: article PMC10781630, “Structural basis of Gabija anti-phage defence and viral immune evasion” (Nature, 2023)
# T1: SUMO2-tagged GajAB complex (Bacillus cereus VD045), 4:4 (Bacillus cereus VD045, UniProt J8H9C1 2-578; J8HQ06 1-494)
# T1 construct: GajA, Bacillus cereus VD045, IMG ID 2519684552; GajB, Bacillus cereus VD045, IMG ID 2519684553; also called SUMO2-GajAB; SUMO2-tagged BcGajAB; source: E. coli, co-expressed, purified (Ni-NTA, SEC); not shown: 6×His-SUMO2, N-terminal, kept; copies: 4 + 4
# T1 sequence 1: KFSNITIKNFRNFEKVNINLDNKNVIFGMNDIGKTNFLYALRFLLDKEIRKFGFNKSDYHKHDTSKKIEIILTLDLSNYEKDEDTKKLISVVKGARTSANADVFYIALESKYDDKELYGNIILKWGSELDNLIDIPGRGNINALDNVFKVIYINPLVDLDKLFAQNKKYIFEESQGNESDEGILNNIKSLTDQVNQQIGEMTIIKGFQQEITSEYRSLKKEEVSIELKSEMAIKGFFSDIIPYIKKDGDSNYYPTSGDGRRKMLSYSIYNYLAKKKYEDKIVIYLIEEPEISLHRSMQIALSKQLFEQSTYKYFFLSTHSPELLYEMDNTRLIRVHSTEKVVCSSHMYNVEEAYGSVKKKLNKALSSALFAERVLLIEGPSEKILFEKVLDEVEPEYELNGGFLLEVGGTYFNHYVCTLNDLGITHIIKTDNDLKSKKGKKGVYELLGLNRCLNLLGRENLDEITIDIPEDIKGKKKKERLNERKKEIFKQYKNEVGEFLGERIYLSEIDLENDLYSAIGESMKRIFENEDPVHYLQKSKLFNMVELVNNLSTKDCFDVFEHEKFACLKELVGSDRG
# T1 sequence 2: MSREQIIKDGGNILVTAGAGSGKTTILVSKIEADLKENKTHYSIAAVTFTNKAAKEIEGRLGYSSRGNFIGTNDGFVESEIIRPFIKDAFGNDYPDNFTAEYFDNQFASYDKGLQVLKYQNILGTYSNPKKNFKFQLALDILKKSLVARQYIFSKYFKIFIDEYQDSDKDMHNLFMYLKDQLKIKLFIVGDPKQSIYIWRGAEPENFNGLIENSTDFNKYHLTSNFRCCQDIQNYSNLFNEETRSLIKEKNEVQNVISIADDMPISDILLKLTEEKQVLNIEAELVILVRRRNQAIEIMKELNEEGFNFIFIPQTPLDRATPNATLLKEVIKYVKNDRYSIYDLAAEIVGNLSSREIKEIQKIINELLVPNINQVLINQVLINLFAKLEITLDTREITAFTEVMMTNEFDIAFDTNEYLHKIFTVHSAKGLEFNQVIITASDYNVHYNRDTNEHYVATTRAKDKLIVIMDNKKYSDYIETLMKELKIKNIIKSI
# T2: GajA E379A;GajB (Bacillus cereus VD045;Bacillus cereus …, UniProt J8H9C1;J8HQ06 1-578;1-494, E379A|)
# T2 sequence 1: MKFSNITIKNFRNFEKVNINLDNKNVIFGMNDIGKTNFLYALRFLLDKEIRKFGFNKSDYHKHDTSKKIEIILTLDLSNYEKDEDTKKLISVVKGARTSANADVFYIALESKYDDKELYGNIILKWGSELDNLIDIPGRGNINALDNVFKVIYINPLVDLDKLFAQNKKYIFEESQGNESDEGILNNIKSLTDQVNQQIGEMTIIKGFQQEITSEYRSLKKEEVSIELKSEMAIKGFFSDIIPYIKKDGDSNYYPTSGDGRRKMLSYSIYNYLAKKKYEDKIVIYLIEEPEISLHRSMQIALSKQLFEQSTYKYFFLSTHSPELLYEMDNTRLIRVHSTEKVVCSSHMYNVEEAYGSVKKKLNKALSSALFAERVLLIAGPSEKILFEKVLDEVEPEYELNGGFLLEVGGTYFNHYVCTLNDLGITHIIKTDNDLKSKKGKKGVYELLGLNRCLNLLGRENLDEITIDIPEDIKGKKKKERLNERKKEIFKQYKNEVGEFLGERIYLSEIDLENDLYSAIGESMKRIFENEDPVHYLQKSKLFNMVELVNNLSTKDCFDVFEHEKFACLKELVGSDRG
# T2 sequence 2: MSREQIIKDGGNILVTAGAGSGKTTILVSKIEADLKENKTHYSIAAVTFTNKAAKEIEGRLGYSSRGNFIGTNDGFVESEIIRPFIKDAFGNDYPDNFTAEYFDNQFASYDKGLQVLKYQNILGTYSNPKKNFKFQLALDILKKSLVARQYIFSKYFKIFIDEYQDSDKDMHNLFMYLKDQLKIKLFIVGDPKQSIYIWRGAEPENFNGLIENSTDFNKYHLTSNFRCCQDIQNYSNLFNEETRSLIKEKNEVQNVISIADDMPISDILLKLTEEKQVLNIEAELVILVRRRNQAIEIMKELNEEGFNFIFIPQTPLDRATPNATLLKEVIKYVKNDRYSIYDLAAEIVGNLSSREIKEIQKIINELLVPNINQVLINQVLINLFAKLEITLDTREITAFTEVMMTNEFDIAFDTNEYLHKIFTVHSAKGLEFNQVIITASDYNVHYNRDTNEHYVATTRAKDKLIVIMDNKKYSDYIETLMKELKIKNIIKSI
# T3: GajA;GajB (Bacillus cereus VD045;Bacillus cereus …, UniProt J8H9C1;J8HQ06 1-578;1-494, |)
# T3 sequence 1: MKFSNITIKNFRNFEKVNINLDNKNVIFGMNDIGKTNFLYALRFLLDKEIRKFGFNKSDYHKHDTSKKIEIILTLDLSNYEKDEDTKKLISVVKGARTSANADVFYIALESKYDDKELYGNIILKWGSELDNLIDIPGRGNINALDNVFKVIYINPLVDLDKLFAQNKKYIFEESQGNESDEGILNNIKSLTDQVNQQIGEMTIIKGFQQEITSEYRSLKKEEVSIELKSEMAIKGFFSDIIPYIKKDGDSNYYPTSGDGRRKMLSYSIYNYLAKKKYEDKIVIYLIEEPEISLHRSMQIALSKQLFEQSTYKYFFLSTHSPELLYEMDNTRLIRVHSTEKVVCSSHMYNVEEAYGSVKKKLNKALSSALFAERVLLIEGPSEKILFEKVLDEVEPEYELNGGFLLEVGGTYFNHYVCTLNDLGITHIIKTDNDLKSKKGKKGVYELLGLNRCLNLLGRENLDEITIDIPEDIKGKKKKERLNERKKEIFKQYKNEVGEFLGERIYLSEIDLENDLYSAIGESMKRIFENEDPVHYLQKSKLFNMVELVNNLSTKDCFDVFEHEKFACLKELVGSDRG
# T3 sequence 2: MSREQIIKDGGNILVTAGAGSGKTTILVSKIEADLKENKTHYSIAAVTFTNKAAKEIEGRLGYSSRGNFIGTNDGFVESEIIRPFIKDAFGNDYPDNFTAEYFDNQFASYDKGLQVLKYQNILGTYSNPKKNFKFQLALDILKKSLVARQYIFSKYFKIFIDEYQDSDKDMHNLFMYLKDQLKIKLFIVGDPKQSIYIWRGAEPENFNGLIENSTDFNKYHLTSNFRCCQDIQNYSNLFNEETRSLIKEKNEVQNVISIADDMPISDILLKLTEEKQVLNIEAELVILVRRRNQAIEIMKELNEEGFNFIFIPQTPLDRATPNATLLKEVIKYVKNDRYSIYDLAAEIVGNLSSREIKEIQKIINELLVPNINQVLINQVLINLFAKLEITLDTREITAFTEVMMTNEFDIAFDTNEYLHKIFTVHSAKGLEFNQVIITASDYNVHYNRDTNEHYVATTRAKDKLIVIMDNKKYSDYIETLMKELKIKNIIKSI
# B1: Bacillus cereus VD045 GajA, co-expressed with GajB, tag removed (subunit of the GajAB complex) (enzyme)
# chain: KFSNITIKNFRNFEKVNINLDNKNVIFGMNDIGKTNFLYALRFLLDKEIRKFGFNKSDYHKHDTSKKIEIILTLDLSNYEKDEDTKKLISVVKGARTSANADVFYIALESKYDDKELYGNIILKWGSELDNLIDIPGRGNINALDNVFKVIYINPLVDLDKLFAQNKKYIFEESQGNESDEGILNNIKSLTDQVNQQIGEMTIIKGFQQEITSEYRSLKKEEVSIELKSEMAIKGFFSDIIPYIKKDGDSNYYPTSGDGRRKMLSYSIYNYLAKKKYEDKIVIYLIEEPEISLHRSMQIALSKQLFEQSTYKYFFLSTHSPELLYEMDNTRLIRVHSTEKVVCSSHMYNVEEAYGSVKKKLNKALSSALFAERVLLIEGPSEKILFEKVLDEVEPEYELNGGFLLEVGGTYFNHYVCTLNDLGITHIIKTDNDLKSKKGKKGVYELLGLNRCLNLLGRENLDEITIDIPEDIKGKKKKERLNERKKEIFKQYKNEVGEFLGERIYLSEIDLENDLYSAIGESMKRIFENEDPVHYLQKSKLFNMVELVNNLSTKDCFDVFEHEKFACLKELVGSDRG
# notes: GajA, Bacillus cereus VD045, IMG ID 2519684552; the 5×GS linker may stay on GajA after SENP2 cleavage; also called BcGajA; source: E. coli BL21(DE3) strains, co-expressed with GajB, purified (Ni-NTA, SUMO2 cleavage by hSENP2, SEC); not shown: 6×His-SUMO2-5×GS, N-terminal, cleaved
# Columns and labels:
# [1] = target: T1, SUMO2-tagged GajAB complex (Bacillus …); test: cryo-EM structure; SUMO2-GajAB–Gad1 (Phi3T) co-complex, 1 mg ml^-1, 2.57 Å D2 symmetry map; conditions: both partners purified
# [2] = target: the molecule itself; test: as above
# [3] = target: T2, GajA E379A;GajB; test: EMSA; 5 mM Ca2+; conditions: protein: recombinant;recombinant; tags: N-terminal 6xHis-SUMO2-5xGS, cleaved by SENP2;none in co-expressed complex; chain copies: 4;4; label: none (ethidium bromide post-stain)
# [4] = target: T3, GajA;GajB; test: EMSA; 5 mM Ca2+; conditions: protein: recombinant;recombinant; chain copies: 4;4; label: none (ethidium bromide post-stain)
# [5] = target: the molecule itself; test: SEC; 16/600 S200 (Superdex 200); recombinant BcGajA and BcGajB each run alone
# [6] = target: the molecule itself; test: crystal structure; co-expressed and co-purified GajAB, 3.0 Å; hanging drop, 18 °C, 100 mM HEPES-NaOH pH 7.5, 2.4% PEG-400, 2.2 M ammonium sulfate
# [7] = target: Bacillus cereus VD045 GajB, untagged, co-expressed with tagged GajA (Bacillus cereus VD045) (UniProt J8HQ06); test: as above
# [8] = target: B1; test: as above; conditions: both partners purified
binder,measurement,setting,value
"Bacillus phage Phi3T Gad1 (Gabija anti-defence 1) (natural protein, Gad1, Bacillus phage Phi3T, 35 kDa; Eight copies stand in the 4:4:8 GajAB–Gad1 complex; source: E. coli, co-expressed with SUMO2-GajAB (pBAD vector), co-purified (Ni-NTA, SEC)) MKLIGIKTSNCFLVSDNIEGKRYFHSQLDELLFDGKRATETYKSDWFKLEKEPSVIEKQMPAKKINHRYELKEGFQESELTPKVIKASYIGEDSEYYEVKGLYDLKFEEIPQQNEKIEFEMNVIEEIDGELKLQSHNFNLNYNLLDRIQTHPMLLETKPCYLSQEESYKIIRNHIKANINPKFARITSDYDFCLTVVKVLELYKPHEYIVDLNAMYKRRKPKLEKRFQTKREVEIYKVAPKAYQSYPIVEPFSGKDVEDLKSNIKKFLDDLMAKINEPLVECKCCKGRGVILNEN",stoichiometry N,[1],8 Gad1 per 4:4 GajAB complex
same,stoichiometry N,[2],8
56-bp target dsDNA (dsDNA) DNA 1: TTTTTTTTTTTTTTTTTAATAACCCGGTTATTTTTTTTTTTTTTTTTTTTTTTTTT DNA 2: AAAAAAAAAAAAAAAAAAAAAAAAAATAACCGGGTTATTAAAAAAAAAAAAAAAAA,binding result,[3],binds
same,binding result,[4],binds
56-bp scrambled dsDNA (dsDNA) DNA 1: TTTTTTTTTTTTTTTTTGACATTACATTCAGTTTTTTTTTTTTTTTTTTTTTTTTT DNA 2: AAAAAAAAAAAAAAAAAAAAAAAAACTGAATGTAATGTCAAAAAAAAAAAAAAAAA,binding result,[3],binds
"Bacillus cereus VD045 GajA (Gabija protein A), expressed alone (enzyme, GajA, Bacillus cereus VD045, IMG ID 2519684552; gene codon-optimized and synthesized; the C-terminal 6×His construct is the only GajA-alone construct described; also called BcGajA; GajA alone; source: E. coli BL21(DE3) strains, purified (Ni-NTA, SEC); also co-expressed with Shewanella phage 1/4 Gad1, in lysate for Ni-NTA co-purification; not shown: 6×His, C-terminal, kept) KFSNITIKNFRNFEKVNINLDNKNVIFGMNDIGKTNFLYALRFLLDKEIRKFGFNKSDYHKHDTSKKIEIILTLDLSNYEKDEDTKKLISVVKGARTSANADVFYIALESKYDDKELYGNIILKWGSELDNLIDIPGRGNINALDNVFKVIYINPLVDLDKLFAQNKKYIFEESQGNESDEGILNNIKSLTDQVNQQIGEMTIIKGFQQEITSEYRSLKKEEVSIELKSEMAIKGFFSDIIPYIKKDGDSNYYPTSGDGRRKMLSYSIYNYLAKKKYEDKIVIYLIEEPEISLHRSMQIALSKQLFEQSTYKYFFLSTHSPELLYEMDNTRLIRVHSTEKVVCSSHMYNVEEAYGSVKKKLNKALSSALFAERVLLIEGPSEKILFEKVLDEVEPEYELNGGFLLEVGGTYFNHYVCTLNDLGITHIIKTDNDLKSKKGKKGVYELLGLNRCLNLLGRENLDEITIDIPEDIKGKKKKERLNERKKEIFKQYKNEVGEFLGERIYLSEIDLENDLYSAIGESMKRIFENEDPVHYLQKSKLFNMVELVNNLSTKDCFDVFEHEKFACLKELVGSDRG",stoichiometry N,[5],4
B1,stoichiometry N,[6],4
"Bacillus cereus VD045 GajB, untagged, co-expressed with tagged GajA (enzyme, GajB, Bacillus cereus VD045, IMG ID 2519684553; also called BcGajB; source: co-purified (Ni-NTA, SEC) or in lysate) MSREQIIKDGGNILVTAGAGSGKTTILVSKIEADLKENKTHYSIAAVTFTNKAAKEIEGRLGYSSRGNFIGTNDGFVESEIIRPFIKDAFGNDYPDNFTAEYFDNQFASYDKGLQVLKYQNILGTYSNPKKNFKFQLALDILKKSLVARQYIFSKYFKIFIDEYQDSDKDMHNLFMYLKDQLKIKLFIVGDPKQSIYIWRGAEPENFNGLIENSTDFNKYHLTSNFRCCQDIQNYSNLFNEETRSLIKEKNEVQNVISIADDMPISDILLKLTEEKQVLNIEAELVILVRRRNQAIEIMKELNEEGFNFIFIPQTPLDRATPNATLLKEVIKYVKNDRYSIYDLAAEIVGNLSSREIKEIQKIINELLVPNINQVLINQVLINLFAKLEITLDTREITAFTEVMMTNEFDIAFDTNEYLHKIFTVHSAKGLEFNQVIITASDYNVHYNRDTNEHYVATTRAKDKLIVIMDNKKYSDYIETLMKELKIKNIIKSI",stoichiometry N,[7],2
same,stoichiometry N,[8],1 GajB per GajA (4:4)
